Test results from the RNAGym collection of RNA variant scans (doi:10.1073/pnas.2313332121).

B1: TPR t1 (parent)
chain: GACCAAUCUGCCCUCAGAGCUCGAGAACAUCUUCGGAUGCAGAGGAGGCAGGCUUCGGUGGCGCGAUAGCGCCAACGUCCUCAACCUCCAAUGCAUCCCACCACAUGAUGAUGCCUGAAGAGCCUUGGUUUUUUG

Variants of: B1
Test: polymerase ribozyme fitness, log enrichment relative to wild type (log ratio); higher = more active; in vitro selection for triplet polymerase activity
Method in brief: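 For each subunit of a heterodimeric triplet polymerase ribozyme, a mutant library was built by PCR and transcribed, then taken through a single in vitro selection round in triplicate. Selection involved annealing to a biotinylated primer, the partner subunit and triplets, incubation frozen at −7 °C, gel excision of extended constructs, capture on streptavidin beads and RT-PCR. Genotypes were retained after Illumina sequencing of inputs and outputs only with ≥10 input reads and ≥1 read in each output. Fitness is defined as the logarithm of a genotype's enrichment relative to wild-type enrichment, using inverse-variance-weighted averages across replicates, with the logarithm taken to base 2.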

Variant | polymerase ribozyme fitness (log ratio)
G61C G69U | -1.37
G61A U81A C82A C98U | -1.55
G61C C88A G117U | -5.25
G61A A84U | -0.89
G61U C114U | -0.943
G61A C79U C115A G120A | -0.74
G61A A90G | -0.68
G61A U129G | -1.24
G61A U129A | -1.11
G60U G93U | -1.03
G61U C89U U92G | -3
G61A G71A | -2.39
G60U U78G C79A G110A U126C | -4.68
G60U U106A | -0.529
G61A C73U U78A C114A | -2.49
G61C U132A | -1.81
G61U G110A | -0.469
G60U C94U G110C | -4.16
G61U A75C | -0.117
G61C C79G U92A G117U | -6.69
G61C G135U | -2.53
G61A C97G G110A | -5.81
G60U G63U C99U C101G C115G G122U C124G | -6.39
G61C U125A | -1.89

Variant | polymerase ribozyme fitness (log ratio)
G61A C72G | 0.08
G61C G113A | -2.26
G61C G113C | -3.19
G61C A75U A84C A95C | -1.21
G61A A83C G110U G117U | -5.13
G61A A103U G113C | -6.41
G61U A74C C123G | -5.28
G61A A121C | 1.95
G61C U78G A111U U131A | -5.71
G61A U116G G128U | -3.71
G61U C73U G93U | -2.38
G61C A75G U81G | -4.25
G61A C80G U109A G113U U133G | -5.53
G61U G107C | -4.98
G61C A100U | -2.98
G61A G117A | -0.803
G61A G117C | -2.99
G61A C82A | -0.883
G61A C82G | -1.29
G61A C82U | 0.141
G61A C82G A105C | -2.79
G61U U81C C82U A121C | 0.807
G60U C114A G127C | -2.37
G60U U132C | -0.354

Variant | polymerase ribozyme fitness (log ratio)
G60U G71A U92G C123A | -6.18
G61A A66U U78C A118G | -1.83
G61C C102U G122A C124A | -3.47
G61A C86A | -0.514
G60U C70U C94U | -2.63
G61C C94U U112A | -1.52
G61A A83U A90G | 0.0238
G61C G120U | -1.08
G61C U112G | -2.38
G61C U112C | 0.0988
G61A A74C U112A | -2.06
G61C C72A C101A G120U C123A | -0.675
G61U G122A | -0.264
G61A A105G | -1.89
G61C U96A | -2.71
G61U C86U G135U | -1.31
G61C G128C | -4.34
G61A G127U U134C | -0.718
G61A C97G | -3.34
G61A U131G | -0.0143
G61A U131C | -0.691
G61C C124A | -0.457
G61U C72G | -0.168
G61U C72A | 0.45

Variant | polymerase ribozyme fitness (log ratio)
G61A U92C C114A | -2.51
G61U C123G | 1.2
G61U C123A | 0.578
G61C A91G U112C G122A | -3.24
G61C G127A U129A | -2.95
G60U G120A U126A | -0.262
G61A C88U G113A G128U | -2.99
G61C C64A C94G G113C C124A | -6.83
G61C A90C U126A | -4.32
G61U U112A U130A | 1.31
G61U C89G A91U C124U | -0.422
G61C C123U | -0.994
G61A C115A | 0.519
G61A C115U | -0.993
G61C C101G | -3.98
G61C C101A | -2.74
G61U G65A | -4.98
G60U C80U U106G U129G | -6.15
G60U U112C | 1
G61U U106C G135U | -1.67
G61A U78C C80U | -5.11
G61C A66U A121G | -0.122
G61C G71U | -3.13
G61C G71A | -4.05

Variant | polymerase ribozyme fitness (log ratio)
G61A A83C | -0.418
G61A A83G | -1.47
G61U G113A | -0.951
G61A C98U C114A | -2.26
G61A C88G G110A | -1.26
G61U G77A | -0.736
G61U A84C | 0.447
G61A U125G | -0.638
G61C C80U G120U | -7.22
G61A C123A | 0.936
G61A C123U | 1.29
G61A C85U G117A U129C | -2.75
G61C C80G | -4.64
G61C C80U | -5.08
G61A G77A | -1.19
G61U G110U A111U | -4.03
G61U C104A | -1.7
G61U G117C U131C | -3.82
G61A G93U A111G | 0.181
G60U C86A | -0.471
G61A G122A | -0.219
G61A G122U | 0.115
G61A G71U A95U U106G G120U | -5.9
G61A A95U | 0.338

Variant | polymerase ribozyme fitness (log ratio)
G61A G77C U96A | -1.55
G61C C80A C101A G110A U112G C115U | -8.21
G61C G77C C79U | -0.228
G60U C79A | -0.593
G61U A100C U133G | -1.29
G60U C89U U106A | -0.38
G61C C62G G63C U112A | -4.63
G61A G93C A95C | -1.24
G61A U130G | -0.92
G61A U130A | 0.0628
G61A A118C G120C U126G | -4.35
G61U A111U | -1.75
G61C A84G U109G | -6.69
G61U G120C U125A | 0.559
G61A C99U | -2.85
G61A U78A U126G | -2.02
G61A C79U | -0.164
G61A C79G | -0.521
G60U C85A C101U | -0.366
G61A C88A G120C A121U | 0.393
G61U C86U | -0.781
G61U U112A | 1.27
G61U U96G U129G | -1.29
G61U G113A C115U | -3.08

Variant | polymerase ribozyme fitness (log ratio)
G60U C101U G120A | 0.583
G60U C102U A108G | -3.29
G61A G110A C114G | -6.32
G61C U92A | -4.11
G61A C89G G93A | -2.18
G60U C123G C124U | 2.24
G61A U78C C88G | -0.472
G61U U106A | 0.146
G61U U106G | -0.849
G61A U81G A84G A91G A111G | -4.48
G61U G120U | 1.51
G61U G120C | 1.18
G61C A105C | -4.76
G61C A105U | -3.67
G61C U78C | -2
G61U C101G U106A | 0.513
G61U U92G | -2.97
G61C C82U G117A | -2.78
G60U C72U A111U | -2.86
G61A A91C U96A | -1.49
G61U U78C C88U U130G | -0.822
G61U A84G G93U G120U | -0.773
G61U C85G C97U | -3.66
